Tests used:
Assay type in all cases: binding
[1] = Probe calibration by titration with FFA / FFA-BSA complexes: DHA; details: equilibrium dissociation constant of probe for DHA
Procedure: (§1) Calibration: Each probe is calibrated to the extent that the constants in Equation 2 are well determined for all FFAu to be included in profile calculations. Equation 2, which is the form of equation 1 for a single FFAu, relates the FFAu concentration to the equilibrium dissociation constant (Kd), fluorometric constants (Q and Rm) and the measured R values.
(§2) The calibration parameters are determined essentially as described in U.S. Pat. No. 7,601,510 which is incorporated herein by reference and (Huber et al Biochemistry (2006) 45:14263-14274) where the calibrated ADIFAB2 probe was used to generate FFA-BSA complexes with accurate and well buffered FFAu concentrations. To calibrate probes with substantially higher affinities than used in U.S. Pat. No. 7,601,510 and (Huber et al Biochemistry (2006) 45:14263-14274) a boot strap method is used in which a probe having higher affinities is calibrated with ADTFAB2. Such a probe is then used to generate FFA-BSA complexes with FFAu concentrations from 0.1 to 10 nM and these complexes are then used to calibrate other high affinity probes.
(§3) Probe calibration involves titrating the probes with either (i) un-buffered FFA or (ii) BSA-buffered FFA stocks. The un-buffered titrations involve measuring the R-value of a 1 μM probe solution as it is slowly titrated to saturation with small aliquots of a 100 to 250 μM FFA stock (Richieri G V et al. (1992) J Biol Chem 267: 23495-23501, Richieri G V et al. (1999) Mol Cell Biochem 192: 87-94). In this case, the total FFA concentration for each point in the titration is known and a nonlinear fit to the titration data yields the full set of fluorometric constants. In an un-buffered FFA titration, probe concentration is a key variable because the probe binds FFA, directly affecting the FFAu value.
(§4) Alternatively, in a BSA-buffered FFA calibration, the probe solution is titrated with a series of FFA-BSA complexes (600 μM BSA with [FFAu] ranging from 0.1 nM to 4 μM). The titration samples are FFA-BSA complex diluted 50-fold in Measuring Buffer. Probe is added to a concentration of 0.5 μM and the R-value is measured. Because BSA buffers FFAu, its concentration remains constant (i.e. known), even after the addition of probe. […] At least two calibrations with each of the up to 15 different FFA are performed for each probe.
(§5) All of the probes reveal substantial differences for different FFAu and in many cases these differences are related to the aqueous solubility of the FFA. For example, of the FFA in Table 3, SA is the least soluble and MA the most soluble. As discussed in (Richieri G V et al (2000) Biochemistry 39: 7197-7204) the tendency of natural proteins and FABPs, in particular, is for binding constants to be largest (smallest Kd) for the least soluble FFA and conversely for the most soluble FA. In two cases, ADIFAB2 and L11, Kd for SA is substantially the smallest and MA the largest and that pattern is more or less maintained for most of the other probes in Table3 with the exception of L83. In that case MA has the largest affinity while SA's more than 10 fold smaller. To some extent the other calibrations constants follow that behavior; Q is largest for the smallest Kd and Rmax is often largest, so that the probe response tends to be larger for FFA with the larger affinities. The ability to generate mutations that overcome the “natural thermodynamics” allows for probes that have a wide range of specificities and sensitivities than enable the determination of FFAu profiles.

[2] = Probe calibration by titration with FFA / FFA-BSA complexes: LNA; details: equilibrium dissociation constant of probe for LNA
Procedure: as §1, §2, §3, §4, §5

[3] = Probe response profile / specificity for different FFAu at 1 nM; details: FFAu giving the largest response to 1 nM of each FFAu; several listed in order of degree of specificity
Description: The abbreviations are: arachidonate (AA), docosahexaenoate (DHA), eicosapentaenoate (EPA), laurate (LAU), linoleate (LA), linolenate (LNA), myristate (MA), oleate (OA), palmitate (PA), palmitoleate (POA), stearate (SA), and vaccenate (VA).
Examples of probes used, generally in groups of 10 or more, to determine FFAu profiles in biological samples such as blood plasma or serum from animals and humans or media from microorganisms are shown in Table 2. In the sequences presented in Table 2 and the sequence listing, amino acids are numbered from the first residue of the mature protein. The initiator methionine residue of the wild-type protein is removed by aminopeptidase activity, leaving an alanine as residue 1. Thus, counting backwards and skipping 0, the initiator methionine is at residue position −1. Specificity indicates the FFAu that gives the largest response to 1 nM of each FFAu when one FFAu dominates the profile and more than one when there is a more even distribution of specificity. Where more than one is indicated they are listed in order of degree of specificity. The abbreviations are: arachidonate (AA), docosahexaenoate (DHA), eicosapentaenoate (EPA), laurate (LAU), linoleate (LA), linolenate (LNA), myristate (MA), oleate (OA), palmitate (PA), palmitoleate (POA), stearate (SA), and vacsinate (VA). The sequences indicate mutations relative to SEQ ID NO: 1. This sequence is a mutated rat intestinal fatty acid binding protein with a Glu 131 to Asp substitution and includes a COOH-terminal affininity tag comprising […], Gly 133 and 6 histidines.
The response profile is the fluorescence change as evaluated as (R−Ro)/Ro (ΔR/Ro) for each FFAu added as a complex of the FFA and albumin so that the FFAu concentration is clamped or buffered at 1 nM for every FFAu for which a calibration has been performed. The calculation is performed simply by rearranging equation 2 to solve for ΔR/Ro. […] However all the probes have different profiles and therefore complementary specificities for different FFAu. Abbreviations are as in Table 2.

[4] = Probe calibration by titration with FFA / FFA-BSA complexes: POA; details: equilibrium dissociation constant of probe for POA
Procedure: as §1, §2, §3, §4, §5

[5] = Probe calibration by titration with FFA / FFA-BSA complexes: LA; details: equilibrium dissociation constant of probe for LA
Procedure: as §1, §2, §3, §4, §5

[6] = Probe calibration by titration with FFA / FFA-BSA complexes: PA; details: equilibrium dissociation constant of probe for PA
Procedure: as §1, §2, §3, §4, §5

[7] = Probe calibration by titration with FFA / FFA-BSA complexes: MA; details: equilibrium dissociation constant of probe for MA
Procedure: as §1, §2, §3, §4, §5

[8] = Probe calibration by titration with FFA / FFA-BSA complexes: AA; details: equilibrium dissociation constant of probe for AA
Procedure: as §1, §2, §3, §4, §5

[9] = Probe calibration by titration with FFA / FFA-BSA complexes: SA
Procedure: as §1, §2, §3, §4, §5

[10] = Probe calibration by titration with FFA / FFA-BSA complexes: OA; details: equilibrium dissociation constant of probe for OA
Procedure: as §1, §2, §3, §4, §5

[11] = Probe response (increase in R) to 1 nM SA; details: 1 nM of SA, FIG. 1
Description: The set of probes chosen to determine the profile of a sample depends upon the nature of the sample, the types of FFA expected to be present in the sample and the determination that the chosen probes respond to the expected FFA. In addition, especially for the least abundant FFAu in a sample, the probe's sensitivity for a given FFAu must be sufficient to accurately quantitate the low concentration FFAu, for example less than 50 pM. Sensitivity is a function of the Kd, Q, Ro and Rm parameters. Differences in sensitivity among different FFAu probes are apparent in FIG. 1 where for example for ADIFAB2 (acrylodan labeled at lysine 27), 1 nM of SA produces a 20% increase in R while for L11P7B3V26C the increases is almost 500%. […] In the absence of absolutely specific and sensitive probes the determination of FFAu profiles requires an over determined system, which empirically requires about twice the number of probes as FFAu to obtain accurate profiles. The identity of the set of probes to achieve accurate FFAu profiles is not unique. […]
The response profile is the fluorescence change as evaluated as (R−Ro)/Ro (ΔR/Ro) for each FFAu added as a complex of the FFA and albumin so that the FFAu concentration is clamped or buffered at 1 nM for every FFAu for which a calibration has been performed. […]

[12] = equilibrium dissociation constant of probe for SA, read-out: Kd SA

B1: L10P7 A4 L30C: acrylodan-labeled mutant FABP probe: Y14L, M18L, K27A, L30C, G31Y, A73L, Y117A (protein, UniProt P02693 2-132, looked up, variant Y14L M18L K27A L30C G31Y A73L Y117A)
Fatty acid-binding protein, …: AFDGTWKVDRNENLEKFLEKMGINVVARKCYAHDNLKLTITQEGNKFTVKESSNFRNIDVVFELGVDFAYSLLDGTELTGTWTMEGNKLVGKFKRVDNGKELIAVREISGNELIQTATYEGVEAKRIFKKE
modifications: acrylodan label
notes: acrylodan-labeled mutant FABP probe: Y14L, M18L, K27A, L30C, G31Y, A73L, Y117A
Q: What does the source list for B1?
A: Kd [1]: 1.2 nM; Kd [2]: 2.7 nM; Specificity [3]: AA/DHA/OA/EPA/LA; Kd [4]: 5.5 nM; Kd [5]: 1.1 nM; Kd [6]: 3 nM; Kd [7]: 15.4 nM; Kd [8]: 1 nM; Kd [9, 12]: 2 nM; Kd [10]: 1.3 nM

B2: L11P7 B3 V26C: acrylodan-labeled mutant FABP probe: M21F, V26C, L72A, L78V, L102V (protein, UniProt P02693 2-132, looked up, variant M21F V26C L72A L78V L102V)
Fatty acid-binding protein, …: AFDGTWKVDRNENYEKFMEKFGINVCKRKLGAHDNLKLTITQEGNKFTVKESSNFRNIDVVFELGVDFAYSAADGTEVTGTWTMEGNKLVGKFKRVDNGKEVIAVREISGNELIQTYTYEGVEAKRIFKKE
modifications: acrylodan label
notes: acrylodan-labeled mutant FABP probe: M21F, V26C, L72A, L78V, L102V
Q: What does the source list for B2?
A: Kd [1]: 7.5 nM; Kd [2]: 11.2 nM; increase in R [11]: ~500%; Kd [4]: 11.1 nM; Kd [5]: 3.9 nM; Kd [6]: 1.1 nM; Kd [7]: 18.8 nM; Kd [8]: 6.1 nM; Kd ([9]; read-out: Kd for SA): 0.25 nM; Kd [10]: 1 nM

B3: L1P8 H2: acrylodan-labeled mutant FABP probe: Y14M, L38M, L72W (protein, UniProt P02693 2-132, looked up, variant Y14M L38M L72W)
Fatty acid-binding protein, …: AFDGTWKVDRNENMEKFMEKMGINVVKRKLGAHDNLKMTITQEGNKFTVKESSNFRNIDVVFELGVDFAYSWADGTELTGTWTMEGNKLVGKFKRVDNGKELIAVREISGNELIQTYTYEGVEAKRIFKKE
modifications: acrylodan label
notes: acrylodan-labeled mutant FABP probe: Y14M, L38M, L72W
Q: With B3 as the molecule, how does the Kd [1] read?
A: 248 nM

Q: What about the Kd [2] of the same molecule?
A: 217 nM

Q: And the Specificity [3]?
A: OA/SA/VA

Q: And the Kd [4]?
A: 209 nM

Q: And the Kd [5]?
A: 97.5 nM

Q: What about the Kd [6] of the same molecule?
A: 45.4 nM

Q: What about the Kd [7] of the same molecule?
A: 299 nM

Q: And the Kd [8]?
A: 104 nM

Q: And the Kd [9, 12]?
A: 19.2 nM

Q: What about the Kd [10] of the same molecule?
A: 14.4 nM

Reference: patent publication US10705101B2, “Determination of the unbound free fatty acid profiles in biological and industrial specimens” (priority 2013, dated 2020)
